In publication PMC5548745, “Agonist-induced dimer dissociation as a macromolecular step in G protein-coupled receptor signaling” (Nature Communications, 2017):

Legend:
SNAP-FZD6 = SNAP-FZD6 internalization by confocal microscopy; type: cell-based; settings: HEK293; WNT-5A 300 ng ml^−1, 15 min
Method: SNAP-FZD6 and SNAP-β2-AR were imaged in living cells using a Zeiss LSM710 equipped with a 40×, 1.2 NA C-Apochromat objective. The cell-impermeable SNAP substrate SNAP-Surface 549 (New England Biolabs) was added (1:1000, 15 min), washed twice in BE buffer and imaged using the 561 nm laser line. SNAP-FZD6 and SNAP-β2-AR were stimulated with 300 ng ml^−1 WNT-5A and 10 µM isoproterenol, respectively, and fluorescence was monitored over time.

FZD6–FZD6 dimer = test: dynamic FCCS of V5-FZD6-mCherry/FZD6-GFP; type: cell-based, human; settings: HEK293
Method: HEK293 cells were grown over-night in Lab-Tek eight-well chamber-glass bottom slides (Nunc, Thermo Scientific, Langensbold, Germany) coated with matrigel. Data were acquired in 10 s intervals. Collection intervals containing abnormal fluorescence peaks (presumably resulting from aggregates or ROIs where the overall fluorescence was decaying, putatively due to membrane movements) were discarded from the overall analysis. The total included measurements time ranged from 20 to 80 s per cell. Measurements were only undertaken on cells where the fluorescence was well localized to the cell surface membrane, as judged by visual inspection in the wide-field and confocal mode. Autofluorescence, as well as fluorescence from both GFP and mCherry in the intracellular region was negligible. The number of fluorescent receptors assessed in each experiment varied from 10–1000 receptors per µm^2 in each HEK293 cell.
Dynamic FCCS measurements of WNT-dependent dissociation and re-association of FZD (Fig. 5c–e) were performed on an FCS/FCCS-equipped Zeiss 780 confocal microscope (Zeiss, Jena, Germany). The instrument details were the same as those of the Confocor 3 described above, with the exception that 561 nm excitation was used for excitation of mCherry, that GFP emission was detected from 500 to 550 nm, and that mCherry emission was detected from 600 to 690 nm. Experiments on cells were performed as described above, with each measurement point consisting of 3–6 measurements of 10 s each. […]
Assuming that M is FZD6-GFP (green) and N is FZD6-mCherry (red) and that all FZD6 form dimers, then the probability of finding a green–red FZD6 dimer is pgr=2×M×N/(M+N)(M+N-1)≈2×M×N/M+N^2=(2cgg+cgr)(2crr+cgr)/2cgg+cgr+crr^2 , where c gg, c gr, and c rr are the corresponding concentrations of the only green FZD6 dimers, the red and green FZD6 dimers and the only red FZD6 dimers. […] From the experiments, we determine the concentrations for c gg, c gr and c rr and compare the concentrations c gr with the c′gr for each cell to get an estimation of how close the model is to experimental data: cgr/c′gr=2cgr×(cgg+cgr+crr)/((2cgg+cgr)(2crr+cgr)) Analysis of the dynamic FCCS measurements of WNT-dependent dissociation and re-association of FZD6: Auto-correlation and cross-correlation curves were analyzed as described above and the amplitudes G g(0)−1, G r(0)−1, and G cc(0)−1 from each of the more than 300 measurements of 10 s duration were estimated by fitting to theoretical models. […]
With the settings described above for detection of emission, the crosstalk from the GFP channel to the mCherry channel, defined as the intensity detected in the mCherry channel divided by the intensity detected in the GFP channel, I r/I g, for a cell expressing only FZD-GFP, was 0.051 or 5.1 %. […]

[1] = representative cell, G cc normalized to green auto-correlation amplitude, WNT-5A

B1: WNT-5A: recombinant carrier-free WNT-5A (R&D Systems), agonist for FZDs (protein, UniProt P41221 62-380, looked up)
Protein Wnt-5a: IIGAQPLCSQLAGLSQGQKKLCHLYQDHMQYIGEGAKTGIKECQYQFRHRRWNCSTVDNTSVFGRVMQIGSRETAFTYAVSAAGVVNAMSRACREGELSTCGCSRAARPKDLPRDWLWGGCGDNIDYGYRFAKEFVDARERERIHAKGSYESARILMNLHNNEAGRRTVYNLADVACKCHGVSGSCSLKTCWLQLADFRKVGDALKEKYDSAAAMRLNSRGKLVQVNSRFNSPTTQDLVYIDPSPDYCVRNESTGSLGTQGRLCNKTSEGMDGCELMCCGRGYDQFKTVQTERCHCKFHWCCYVKCKKCTEIVDQFVCK
internalization of SNAP-FZD6 (SNAP-FZD6): minimal internalization of SNAP-FZD6 was observed and this was not enhanced by the addition of recombinant WNT-5A | FZD6–FZD6 interaction upon stimulation (FCCS) (FZD6–FZD6 dimer; WNT-5A 300 ng ml^−1): a transient decrease in FZD6–FZD6 interaction | red molecules also green at maximal dimer dissociation (FZD6–FZD6 dimer; [1]): 6% | red molecules also green upon dimer re-association (FZD6–FZD6 dimer; [1]): 21%
